Data reported in patent publication CN118388640A (CHENZHOU NO 1 PEOPLES HOSPITAL, dated 2024).

Biological target: T1, SARS-CoV-2 Omicron BA.1突变株 S蛋白 (Sino Biological，货号:40589-V08B33) (SARS-CoV-2 Omicron BA.1突变株)
T1 construct: also called Omicron BA.1 S蛋白
Test: ELISA, S protein coated, antibody titrated from 10 μg/mL

B1: 抗新型冠状病毒SARS-CoV-2的广谱抗体(VSM12-37) (antibody, V domains shown)
VH: EVQLVESGGGLVQPGGSLRLSCAVSGFTVSSNYMSWVRQAPGKGLEWVSLIYSGGSTYYADSVKGRFTVSRDRSKNTLYLQMNSLRAEDTALYYCARDNPRVGSNYWGQGTLVTVSS
VL: DIQMTQSPSSLSASVGDRVTITCQASQDINNYLNWYQQKPGKAPKLLIYDASNLEAGVPSRFSGSGSGTDFTFTISSLQPEDIATYYCQQCDNVPLTFGGGTKVEIKR
notes: also called VSM12-37抗体
- EC50: > 5 µg/mL
